{"source": "FireProtDB (doi:10.1016/j.bbapap.2007.04.008)", "details": "Brassica napus, pH 7, 27 °C, GdnHCl, phosphate 0.02 M, transition: 3, reversible: Yes, whole UniProt chain shown", "note": "Values joined by “and” are separate entries in the source; they are usually repeats but may differ in a detail not shown here. Equal entries are not always repeated."}
{"protein": "Napin-1A wild type, P24565 (protein) QPQKCQREFQQEQHLRACQQWIRQQLAGSPFQSGPQEGPWLREQCCNELYQEDQVCVCPTLKQAAKSVRVQGQHGPFQSTRIYQIAKNLPNVCNMKQIGTCPFIAIPFFP", "values": [{"measurement": "denaturant m value", "setting": "CD", "result": "1.8 kcal/mol/M and 1.2 kcal/mol/M"}, {"measurement": "unfolding free energy", "setting": "CD", "result": "5.2 kcal/mol and 5.1 kcal/mol"}, {"measurement": "denaturant m value", "setting": "Fluorescence", "result": "1.6 kcal/mol/M and 1.3 kcal/mol/M"}, {"measurement": "unfolding free energy", "setting": "Fluorescence", "result": "5.2 kcal/mol and 5.1 kcal/mol"}]}
